Experimental findings from patent US20240158503A1 (PIERRE FABRE MEDICAMENT, published 2024) are described below.

In assay [1] the target is T1, human His-tagged VSIG4 short isoform (K00400002-BR1-117) (human, UniProt Q9Y279 20-283).
T1 construct: also called hVSIG4-His (short form); not shown: His tag (detected with anti-6His)
The experiment in a line: HTRF competition: His-tagged VSIG4 short isoform with iC3b. Background: TR-FRET usually uses a lanthanide donor and a delayed reading to cut background.

Assay [2] addresses T2, hVSIG4(S)-hFc (VSIG4(S)-Fc) (human).
T2 construct: also called hVSIG4 short-hFc (S); VGIG4(S)-Fc
The experiment in a line: western blot, 100 ng hVSIG4 short-hFc. A general note: In western blotting, separated proteins are transferred to a membrane and probed.

The target of assay [3] is T3, human VSIG4 overexpressed on HEK293E cells (human, UniProt Q9Y279 20-399).
T3 construct: whole, on cells; also called hVSIG4/HEK293E; huVSIG4
The assay can be described thus: flow cytometry on HEK293E cells expressing human VSIG4, antibody titration. Background: In flow cytometry, cells or beads pass a laser one at a time.

Assay [4] deals with T1, human His-tagged VSIG4 short isoform …. The assay can be described thus: HTRF competition: His-tagged VSIG4 short isoform with C3b-d2.
Another assay concerns the target T4, VSIG4-M7-Fc (human).
T4 construct: 78; Leader left out; 79
The experiment in a line: scFv-phage ELISA on coated Fc fusion (100 ng/well).

The target of assay [5] is T5, VSIG4-M8-Fc (human).
T5 construct: 81; Leader left out; 82
The assay can be described thus: scFv-phage ELISA on coated Fc fusion (100 ng/well), anti-M13-HRP, A490.

A further assay addresses T6, VSIG4-M2-Fc (human).
T6 construct: 63; Leader left out; 64
The assay is described as above.

Another assay concerns the target T7, VSIG4-M1-Fc (human).
T7 construct: Short form carrying E24T, V25A, E27H, V29L, T30A; Structure [LS]-QGAVGA-[VSIG4]-LAASAAS-[FC], leader left out; 61
The assay is described as above.

For assay [6], the target named is T8, hVSIG4-Fc (long VSIG4 form, epitope-mapping construct) (human).
T8 construct: 55
The assay is described as above.

The next assay concerns the target T9, VSIG4-M6-Fc (human).
T9 construct: 75; Leader left out; 76
The assay is described as above.

Another assay deals with T10, VSIG4-M5-Fc (human).
T10 construct: 72; Leader left out; 73
The assay is described as above.

Assay [7] has as its target T11, hVSIG4-V-Fc (short VSIG4 form, epitope-mapping construct) (human).
T11 construct: 58; All M1-M8 mutations were made in this short form
The description is as above.

In another assay the target is T12, VSIG4-M3-Fc (human).
T12 construct: 66; Leader left out; 67
The assay is described as above.

A further assay concerns the target T13, VSIG4-M4-Fc (human).
T13 construct: 69; Leader left out; 70
The description is as above.

For assay [8], the target named is T5, VSIG4-M8-Fc. The assay can be described thus: scFv-phage ELISA on coated Fc fusion (100 ng/well).

Usually IC50 stands for the concentration that gives 50% inhibition. In general, EC50 refers to the concentration that produces a half-maximal response. Low readings indicate greater potency, high ones weaker potency.

B1: SA2281 (full-length human anti-VSIG4 monoclonal antibody, IgG form) (antibody, V domains shown)
VH: QVQLVESGGGVVQPGRSLRVSCAASGFTFSTYAMHWVRQAPGKGLEWLAVVSHDGTYKYYGDSVKGRFSISRDNSKNTLYLQMNSLRSEDTAVYYCGRHAAGSSFDYWGQGTVVTVSS
VL: DIQMTQSPSSLSASVGDRVTITCQASRDISNYLNWYQQKPGKAPKLLIYKTSNLQRGVPSRFSGSGSGTEFTLTISRLQPDDSATYYCQQSYRTPYTFGQGTKLEIK
notes: also called Mab SA2281
In the case of B1, the IC50 in assay [1] amounted to 9.5 nM; in assay [4], 7.3 nM. The binding result in assay [2] is on record as “binds”. Moreover, the EC50 in assay [3] amounted to 0.461 nM.

B2: SA2281 scFv-phage (original scFv version of SA2281) (scFv, V domains shown)
VH: QVQLVESGGGVVQPGRSLRVSCAASGFTFSTYAMHWVRQAPGKGLEWLAVVSHDGTYKYYGDSVKGRFSISRDNSKNTLYLQMNSLRSEDTAVYYCGRHAAGSSFDYWGQGTVVTVSS
VL: DIQMTQSPSSLSASVGDRVTITCQASRDISNYLNWYQQKPGKAPKLLIYKTSNLQRGVPSRFSGSGSGTEFTLTISRLQPDDSATYYCQQSYRTPYTFGQGTKLEIK
B2: the binding result in the assay with VSIG4-M7-Fc is “no binding”; in the assay with VSIG4-M8-Fc [5] it was “binds”; in the assay with VSIG4-M2-Fc, “binds”; with VSIG4-M1-Fc, “binds”; in assay [6], “binds”; with VSIG4-M6-Fc, “binds”. For the same molecule, the binding result (with VSIG4-M5-Fc; in assay [7]; with VSIG4-M3-Fc; with VSIG4-M4-Fc) was “binds” each time.

B3: SA2297 (full-length human anti-VSIG4 monoclonal antibody, IgG form) (antibody, V domains shown)
VH: QVQLVESGGGVVQPGGSLRLSCAASGFIFSDYYMSWVRQAPGKGLEWVSYISPSGYTISYADSVKGRFTISRDNSKNSLYLQMNSLRAEDTAVYYCARRFSSSWSGYFDYWGHGALVTVSS
VL: DIQMTQSPSTLSASVGDRVTITCRASQNINRWLAWYQQKPGKAPKLLIYKAFRLHSGVPSRFSGSGSGTEFTLTITSLQPDDFATYYCQQYLSYSSSIFGQGTKVEIK
notes: also called Mab SA2297
Take B3: the IC50 worked out at 17.9 nM in assay [1] and 16.4 nM in assay [4]. For the same molecule, the binding result in assay [2] is listed as “binds”. Besides, the concentration for a half-maximal effect (EC50) in assay [3] was determined as 1.18 nM.

B4: SA2297 scFv-phage (original scFv version of SA2297) (scFv, V domains shown)
VH: QVQLVESGGGVVQPGGSLRLSCAASGFIFSDYYMSWVRQAPGKGLEWVSYISPSGYTISYADSVKGRFTISRDNSKNSLYLQMNSLRAEDTAVYYCARRFSSSWSGYFDYWGHGALVTVSS
VL: DIQMTQSPSTLSASVGDRVTITCRASQNINRWLAWYQQKPGKAPKLLIYKAFRLHSGVPSRFSGSGSGTEFTLTITSLQPDDFATYYCQQYLSYSSSIFGQGTKVEIK
On to B4, for which the binding result with VSIG4-M8-Fc [8] is listed as “no binding”; in the assay with VSIG4-M7-Fc, “no binding”; in the assay with VSIG4-M2-Fc it was “binds”; with VSIG4-M1-Fc, “binds”; in [6], “binds”; with VSIG4-M6-Fc, “binds”. Besides, the binding result (with VSIG4-M5-Fc; in [7]; with VSIG4-M3-Fc; with VSIG4-M4-Fc) was “binds” each time.
